B1: HmutscFvCD20Δ19 (other)
chain: MSRIVINREHLMIDRPYVLLAVLFVMFLSLIGLLAIAGIRLHRAAIYTAEIHKSLSTNLDVTNSIEHQVKDVLTPLFKIIGDEVGLRTPQRFTDLVKFISDKIKFLNPDREYDFRDLTWCINPPERIKLDYDQYCADVAAEELMNALVNSTLLETRTTNQFLAVSKGNCSGPTTIRGQFSNMSLSLLDLYLGRGYNVSSIVTMTSQGMYGGTYLVEKPNLSSKRSELSQLSMYRVFEVGVIRNPGLGAPVFHMTNYLEQPVSNDLSNCMVALGELKLAALCHGEDSITIPYQGSGKGVSFQLVKLGVWKSPTDMQSWVPLSTDDPVIDRLYLSSHRGVIADNQAKWAVPTTRTDDKLRMETCFQQACKGKIQALCENPEWAPLKDNRIPSYGVLSVDLSLTVELKIKIASGFGPLITHGSGMDLYKSNHNNVYWLTIPPMKNLALGVINTLEWIPRFKVSPALFTVPIKEAGGDCHAPTYLPAEVDGDVKLSSNLVILPGQDLQYVLATYDTSAVEHAVVYYVYSPSRLSSYFYPFRLPIKGVPIELQVECFTWDQKLWCRHFCVLADSESGGHITHSGMVGMGVSCTVTREDGTNAAQPAIEGRMAQVQLVQSGAELVKPGASVKMSCKASGYTFTSYNMHWVKQTPGQGLEWIGAIYPGNGDTSYNQKFKGKATLTADKSSSTAYMQLSSLTSEDSAVYYCARAQLRPNYWYFDVWGAGTTVTVSKISGGGGSGGGGSGGGGSGGSSDIVLSQSPAILSASPGEKVTMTCRASSSVSYMHWYQQKPGSSPKPWIYATSNLASGVPARFSGSGSGTSYSLTISRVEAEDAATYYCQQWISNPPTFGAGTKLELKAAARGSHHHHHH
B2: HcΔ24 (other)
chain: MNREHLMIDRPYVLLAVLFVMFLSLIGLLAIAGIRLHRAAIYTAEIHKSLSTNLDVTNSIEHQVKDVLTPLFKIIGDEVGLRTPQRFTDLVKFISDKIKFLNPDREYDFRDLTWCINPPERIKLDYDQYCADVAAEELMNALVNSTLLETRTTNQFLAVSKGNCSGPTTIRGQFSNMSLSLLDLYLGRGYNVSSIVTMTSQGMYGGTYLVEKPNLSSKRSELSQLSMYRVFEVGVIRNPGLGAPVFHMTNYLEQPVSNDLSNCMVALGELKLAALCHGEDSITIPYQGSGKGVSFQLVKLGVWKSPTDMQSWVPLSTDDPVIDRLYLSSHRGVIADNQAKWAVPTTRTDDKLRMETCFQQACKGKIQALCENPEWAPLKDNRIPSYGVLSVDLSLTVELKIKIASGFGPLITHGSGMDLYKSNHNNVYWLTIPPMKNLALGVINTLEWIPRFKVSPYLFTVPIKEAGGDCHAPTYLPAEVDGDVKLSSNLVILPGQDLQYVLATYDTSRVEHAVVYYVYSPSRSFSYFYPFRLPIKGVPIELQVECFTWDQKLWCRHFCVLADSESGGHITHSGMVGMGVSCTVTREDGTNRR
B3: HcΔ23 (other)
chain: MINREHLMIDRPYVLLAVLFVMFLSLIGLLAIAGIRLHRAAIYTAEIHKSLSTNLDVTNSIEHQVKDVLTPLFKIIGDEVGLRTPQRFTDLVKFISDKIKFLNPDREYDFRDLTWCINPPERIKLDYDQYCADVAAEELMNALVNSTLLETRTTNQFLAVSKGNCSGPTTIRGQFSNMSLSLLDLYLGRGYNVSSIVTMTSQGMYGGTYLVEKPNLSSKRSELSQLSMYRVFEVGVIRNPGLGAPVFHMTNYLEQPVSNDLSNCMVALGELKLAALCHGEDSITIPYQGSGKGVSFQLVKLGVWKSPTDMQSWVPLSTDDPVIDRLYLSSHRGVIADNQAKWAVPTTRTDDKLRMETCFQQACKGKIQALCENPEWAPLKDNRIPSYGVLSVDLSLTVELKIKIASGFGPLITHGSGMDLYKSNHNNVYWLTIPPMKNLALGVINTLEWIPRFKVSPYLFTVPIKEAGGDCHAPTYLPAEVDGDVKLSSNLVILPGQDLQYVLATYDTSRVEHAVVYYVYSPSRSFSYFYPFRLPIKGVPIELQVECFTWDQKLWCRHFCVLADSESGGHITHSGMVGMGVSCTVTREDGTNRR
B4: HcΔ22 (other)
chain: MVINREHLMIDRPYVLLAVLFVMFLSLIGLLAIAGIRLHRAAIYTAEIHKSLSTNLDVTNSIEHQVKDVLTPLFKIIGDEVGLRTPQRFTDLVKFISDKIKFLNPDREYDFRDLTWCINPPERIKLDYDQYCADVAAEELMNALVNSTLLETRTTNQFLAVSKGNCSGPTTIRGQFSNMSLSLLDLYLGRGYNVSSIVTMTSQGMYGGTYLVEKPNLSSKRSELSQLSMYRVFEVGVIRNPGLGAPVFHMTNYLEQPVSNDLSNCMVALGELKLAALCHGEDSITIPYQGSGKGVSFQLVKLGVWKSPTDMQSWVPLSTDDPVIDRLYLSSHRGVIADNQAKWAVPTTRTDDKLRMETCFQQACKGKIQALCENPEWAPLKDNRIPSYGVLSVDLSLTVELKIKIASGFGPLITHGSGMDLYKSNHNNVYWLTIPPMKNLALGVINTLEWIPRFKVSPYLFTVPIKEAGGDCHAPTYLPAEVDGDVKLSSNLVILPGQDLQYVLATYDTSRVEHAVVYYVYSPSRSFSYFYPFRLPIKGVPIELQVECFTWDQKLWCRHFCVLADSESGGHITHSGMVGMGVSCTVTREDGTNRR
B5: HcΔ21 (other)
chain: MIVINREHLMIDRPYVLLAVLFVMFLSLIGLLAIAGIRLHRAAIYTAEIHKSLSTNLDVTNSIEHQVKDVLTPLFKIIGDEVGLRTPQRFTDLVKFISDKIKFLNPDREYDFRDLTWCINPPERIKLDYDQYCADVAAEELMNALVNSTLLETRTTNQFLAVSKGNCSGPTTIRGQFSNMSLSLLDLYLGRGYNVSSIVTMTSQGMYGGTYLVEKPNLSSKRSELSQLSMYRVFEVGVIRNPGLGAPVFHMTNYLEQPVSNDLSNCMVALGELKLAALCHGEDSITIPYQGSGKGVSFQLVKLGVWKSPTDMQSWVPLSTDDPVIDRLYLSSHRGVIADNQAKWAVPTTRTDDKLRMETCFQQACKGKIQALCENPEWAPLKDNRIPSYGVLSVDLSLTVELKIKIASGFGPLITHGSGMDLYKSNHNNVYWLTIPPMKNLALGVINTLEWIPRFKVSPYLFTVPIKEAGGDCHAPTYLPAEVDGDVKLSSNLVILPGQDLQYVLATYDTSRVEHAVVYYVYSPSRSFSYFYPFRLPIKGVPIELQVECFTWDQKLWCRHFCVLADSESGGHITHSGMVGMGVSCTVTREDGTNRR
B6: HcΔ14 (other)
chain: MPHPKGSRIVINREHLMIDRPYVLLAVLFVMFLSLIGLLAIAGIRLHRAAIYTAEIHKSLSTNLDVTNSIEHQVKDVLTPLFKIIGDEVGLRTPQRFTDLVKFISDKIKFLNPDREYDFRDLTWCINPPERIKLDYDQYCADVAAEELMNALVNSTLLETRTTNQFLAVSKGNCSGPTTIRGQFSNMSLSLLDLYLGRGYNVSSIVTMTSQGMYGGTYLVEKPNLSSKRSELSQLSMYRVFEVGVIRNPGLGAPVFHMTNYLEQPVSNDLSNCMVALGELKLAALCHGEDSITIPYQGSGKGVSFQLVKLGVWKSPTDMQSWVPLSTDDPVIDRLYLSSHRGVIADNQAKWAVPTTRTDDKLRMETCFQQACKGKIQALCENPEWAPLKDNRIPSYGVLSVDLSLTVELKIKIASGFGPLITHGSGMDLYKSNHNNVYWLTIPPMKNLALGVINTLEWIPRFKVSPYLFTVPIKEAGGDCHAPTYLPAEVDGDVKLSSNLVILPGQDLQYVLATYDTSRVEHAVVYYVYSPSRSFSYFYPFRLPIKGVPIELQVECFTWDQKLWCRHFCVLADSESGGHITHSGMVGMGVSCTVTREDGTNRR
B7: HcΔ24+4A (other)
chain: MAAAANREHLMIDRPYVLLAVLFVMFLSLIGLLAIAGIRLHRAAIYTAEIHKSLSTNLDVTNSIEHQVKDVLTPLFKIIGDEVGLRTPQRFTDLVKFISDKIKFLNPDREYDFRDLTWCINPPERIKLDYDQYCADVAAEELMNALVNSTLLETRTTNQFLAVSKGNCSGPTTIRGQFSNMSLSLLDLYLGRGYNVSSIVTMTSQGMYGGTYLVEKPNLSSKRSELSQLSMYRVFEVGVIRNPGLGAPVFHMTNYLEQPVSNDLSNCMVALGELKLAALCHGEDSITIPYQGSGKGVSFQLVKLGVWKSPTDMQSWVPLSTDDPVIDRLYLSSHRGVIADNQAKWAVPTTRTDDKLRMETCFQQACKGKIQALCENPEWAPLKDNRIPSYGVLSVDLSLTVELKIKIASGFGPLITHGSGMDLYKSNHNNVYWLTIPPMKNLALGVINTLEWIPRFKVSPYLFTVPIKEAGGDCHAPTYLPAEVDGDVKLSSNLVILPGQDLQYVLATYDTSRVEHAVVYYVYSPSRSFSYFYPFRLPIKGVPIELQVECFTWDQKLWCRHFCVLADSESGGHITHSGMVGMGVSCTVTREDGTNRR
B8: HcΔ19 (other)
chain: MSRIVINREHLMIDRPYVLLAVLFVMFLSLIGLLAIAGIRLHRAAIYTAEIHKSLSTNLDVTNSIEHQVKDVLTPLFKIIGDEVGLRTPQRFTDLVKFISDKIKFLNPDREYDFRDLTWCINPPERIKLDYDQYCADVAAEELMNALVNSTLLETRTTNQFLAVSKGNCSGPTTIRGQFSNMSLSLLDLYLGRGYNVSSIVTMTSQGMYGGTYLVEKPNLSSKRSELSQLSMYRVFEVGVIRNPGLGAPVFHMTNYLEQPVSNDLSNCMVALGELKLAALCHGEDSITIPYQGSGKGVSFQLVKLGVWKSPTDMQSWVPLSTDDPVIDRLYLSSHRGVIADNQAKWAVPTTRTDDKLRMETCFQQACKGKIQALCENPEWAPLKDNRIPSYGVLSVDLSLTVELKIKIASGFGPLITHGSGMDLYKSNHNNVYWLTIPPMKNLALGVINTLEWIPRFKVSPYLFTVPIKEAGGDCHAPTYLPAEVDGDVKLSSNLVILPGQDLQYVLATYDTSRVEHAVVYYVYSPSRSFSYFYPFRLPIKGVPIELQVECFTWDQKLWCRHFCVLADSESGGHITHSGMVGMGVSCTVTREDGTNRR
B9: HcΔ18 (other)
chain: MGSRIVINREHLMIDRPYVLLAVLFVMFLSLIGLLAIAGIRLHRAAIYTAEIHKSLSTNLDVTNSIEHQVKDVLTPLFKIIGDEVGLRTPQRFTDLVKFISDKIKFLNPDREYDFRDLTWCINPPERIKLDYDQYCADVAAEELMNALVNSTLLETRTTNQFLAVSKGNCSGPTTIRGQFSNMSLSLLDLYLGRGYNVSSIVTMTSQGMYGGTYLVEKPNLSSKRSELSQLSMYRVFEVGVIRNPGLGAPVFHMTNYLEQPVSNDLSNCMVALGELKLAALCHGEDSITIPYQGSGKGVSFQLVKLGVWKSPTDMQSWVPLSTDDPVIDRLYLSSHRGVIADNQAKWAVPTTRTDDKLRMETCFQQACKGKIQALCENPEWAPLKDNRIPSYGVLSVDLSLTVELKIKIASGFGPLITHGSGMDLYKSNHNNVYWLTIPPMKNLALGVINTLEWIPRFKVSPYLFTVPIKEAGGDCHAPTYLPAEVDGDVKLSSNLVILPGQDLQYVLATYDTSRVEHAVVYYVYSPSRSFSYFYPFRLPIKGVPIELQVECFTWDQKLWCRHFCVLADSESGGHITHSGMVGMGVSCTVTREDGTNRR

These binders were tested against human CD20 (human, UniProt P11836) (assay: cell-based or functional assay).

For B1, the “titer [t.u./ml] of HIV-1 vector particles on HT1080-CD20 cells, concentrated supernatant” value was 1.32e+06 t.u./ml.

Each binder was assayed against T1, CD46 (human, UniProt P15529) (assay: cell-based or functional assay).

First: B2
Second: B3
The “titer [t.u./ml] of HIV-1 vector particles on HT1080 cells, not concentrated supernatant” value of the first is lower: 88 t.u./ml for the first, 130 t.u./ml for the second.

Going from B4 to B5, the “titer [t.u./ml] of HIV-1 vector particles on HT1080 cells, not concentrated supernatant” value rises from 140 t.u./ml to 1500 t.u./ml.

Molecular target: T1, CD46
Assay: cell-based or functional assay
Remark: another data set of the same source

Going from B6 to B7, the “titer [t.u./ml] of HIV-1 vector particles on 293T cells, concentrated supernatant” value rises from 2900 t.u./ml to 1.6e+06 t.u./ml.

First: B8
Second: B9
The “titer [t.u./ml] of HIV-1 vector particles on 293T cells, concentrated supernatant” value of the first is lower: 200000 t.u./ml for the first, 1e+06 t.u./ml for the second.

First: B6
Second: B7
The “titer [t.u./ml] of HIV-1 vector particles on U-87MG cells, concentrated supernatant” value of the first is lower: 3420 t.u./ml for the first, ≥ 1e+06 t.u./ml for the second.

B8 and B9 cannot be ordered by “titer [t.u./ml] of HIV-1 vector particles on U-87MG cells, concentrated supernatant” value: ≥ 1e+06 t.u./ml for the first, ≥ 1e+06 t.u./ml for the second.

— patent publication US9862971B2 (BUNDESREPUBLIK DEUTSCHLAND, LETZTVERTRETEN DURCH DEN …, dated 2018)
